Data on one substance can be found in IntAct's records for PubMed 9422512.

The assay deals with wasp_human WAS (UniProt P42768).
wasp_human WAS, sequence (P42768 whole entry): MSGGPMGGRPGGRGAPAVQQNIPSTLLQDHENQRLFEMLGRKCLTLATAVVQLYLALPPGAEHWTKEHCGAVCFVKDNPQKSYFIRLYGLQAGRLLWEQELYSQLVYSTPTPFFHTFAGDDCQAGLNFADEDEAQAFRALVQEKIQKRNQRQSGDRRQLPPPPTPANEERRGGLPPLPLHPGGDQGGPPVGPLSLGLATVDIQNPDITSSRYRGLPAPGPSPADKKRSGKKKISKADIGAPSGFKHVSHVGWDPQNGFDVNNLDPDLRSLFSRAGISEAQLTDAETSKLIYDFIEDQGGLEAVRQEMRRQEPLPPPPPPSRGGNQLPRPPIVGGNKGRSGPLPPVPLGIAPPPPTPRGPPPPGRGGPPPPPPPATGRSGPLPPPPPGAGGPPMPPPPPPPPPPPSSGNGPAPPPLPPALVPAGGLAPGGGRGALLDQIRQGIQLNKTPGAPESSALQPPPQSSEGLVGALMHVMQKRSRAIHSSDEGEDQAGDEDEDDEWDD

Cell division control protein 42 homolog (Homo sapiens), P60953 Y40C, sequence (P60953 whole entry Y40C): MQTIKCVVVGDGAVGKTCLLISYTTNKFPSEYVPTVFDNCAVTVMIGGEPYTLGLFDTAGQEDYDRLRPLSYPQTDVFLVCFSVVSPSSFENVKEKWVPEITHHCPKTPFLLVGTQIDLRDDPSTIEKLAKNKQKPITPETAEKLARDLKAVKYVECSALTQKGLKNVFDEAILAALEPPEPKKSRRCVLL

In the case of “Cell division control protein 42 homolog (Homo sapiens), P60953 Y40C”, the “effect of a mutation on the interaction” value was “disrupting interaction”.
